Tests used:
JAM-C ΔPDZbm = biological target: T1, JAM-C ΔPDZbm (Mus musculus, UniProt Q9D8B7); test: yeast two hybrid interaction of Grasp55 constructs with JAM-C ΔPDZbm; type: binding, murine; design: key: Symbols “+++” and “−” indicates the growth of yeast on selective media as shown in the FIGURE 13; Symbols “+++” and “−” indicates the growth of yeast on selective media as shown in the FIGURE 13
T1 construct: amino-acids 263 to 310 of murine JAM-C; expressed in transfected cells; host or cells: AH109 yeast strain
T1 sequence (Q9D8B7 263-307 limits assumed): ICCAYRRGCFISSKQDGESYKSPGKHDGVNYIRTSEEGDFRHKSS
Text: (§1) The different GRASP55 constructs were cloned into pGBT9 GW vector (Ga14 DNA-binding domain fusion vector, Trp) as well in the pACT2 GW vector (Gal4 DNA-activation domain fusion vector, Leu) using the Gateway technology (Invitrogen). Plasmids were then co-transformed in AH109 yeast strain (/MATa, trp1-901, leu2-3, 112, ura3-52, his3-200, gal4/A, /gal80/A, /LYS2::GAL1//UAS//-GAL1//TATA//-HIS3, GAL2//UAS//-GAL2//TATA//-ADE2, URA3::MEL1//UAS//-MEL1//TATA//-lacZ, MEL1/) in accordance with the previously described transformation protocol (Chien et al. 1991. Proc Natl Acad Sci USA. 88:9578-82). Following co-transformation with the two vectors containing the different constructs (as well as the empty vector to test self activation), yeasts were plated onto Synthetic Complete (SC) medium minus Leucine (−L), minus Tryptophan (−W), minus Histidine (−H) and incubated at 30° C. for 4 to 5 days. All yeast media were prepared as previously described.
(§2) In examples 2, the inventors have previously shown that interaction between Grasp55 and C-terminal part of JAM-C requires the peptidic sequence between residues 1 to 160 of Grasp55 (PDZI+II) but cannot occur with residues 1 to 79 of Grasp55 (PDZI) by yeast two hybrid and ELISA assay (FIGS. 2 and 8). In the present example, the interaction sites between JAMs or metalloproteinases involved in JAM regulation and Grasp55 have been mapped using new constructs. To this end, yeast two-hybrid and GST fusion proteins encompassing residues 1 to 107, 108 to 208, and 1 to 208 corresponding respectively to the PDZI′, PDZII′ and PDZI′+II′ constructs have been generated. The former PDZII construct (residues 80 to 160) have also been used to test interaction with the C-terminal sequences of ADAM 10 (of sequence SEQ ID NO: 41) and ADAM 17 (of sequence SEQ ID NO: 42) known to regulate JAM-A and JAM-C release (Table 1). GST fusion proteins were produced and yeast two-hybrid assay was performed as previously described in example 1.

ADAM10 = biological target: T2, ADAM10 (Mus musculus, UniProt O35598, DEL741-741); test: yeast two hybrid interaction of Grasp55 constructs with ADAM10 C-terminal sequence; type: binding, murine; design: key: Symbols “+++” and “−” indicates the growth of yeast on selective media as shown in the FIGURE 13; Symbols “+++” and “−” indicates the growth of yeast on selective media as shown in the FIGURE 13
T2 construct: expressed in transfected cells; host or cells: AH109 yeast strain
T2 sequence (O35598 with tags, fused parts or gaps DEL741-741): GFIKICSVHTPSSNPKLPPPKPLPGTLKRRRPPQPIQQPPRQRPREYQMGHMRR
Text: as §1, §2

JAM-A = biological target: T3, JAM-A (Mus musculus, UniProt O88792, R268T); test: yeast two hybrid interaction of Grasp55 constructs with JAM-A; type: binding, murine; design: key: Symbols “+++” and “−” indicates the growth of yeast on selective media as shown in the FIGURE 13; Symbols “+++” and “−” indicates the growth of yeast on selective media as shown in the FIGURE 13
T3 construct: amino-acids 260 to 299 of murine JAM-A; expressed in transfected cells; host or cells: AH109 yeast strain
T3 sequence (O88792 260-300 R268T): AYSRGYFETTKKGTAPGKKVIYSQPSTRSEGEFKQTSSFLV
Text: as §1, §2

JAM-B ΔPDZbm = biological target: T4, JAM-B ΔPDZbm (Mus musculus, UniProt Q9JI59); test: yeast two hybrid interaction of Grasp55 constructs with JAM-B ΔPDZbm; type: binding, murine; design: key: Symbols “+++” and “−” indicates the growth of yeast on selective media as shown in the FIGURE 13; Symbols “+++” and “−” indicates the growth of yeast on selective media as shown in the FIGURE 13
T4 construct: amino-acids 258 to 298 of murine JAM-B; expressed in transfected cells; host or cells: AH109 yeast strain
T4 sequence (Q9JI59 258-295 limits assumed): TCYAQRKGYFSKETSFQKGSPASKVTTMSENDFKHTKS
Text: as §1, §2

JAM-C = biological target: T5, JAM-C (Mus musculus, UniProt Q9D8B7); test: yeast two hybrid interaction of Grasp55 constructs with JAM-C; type: binding, murine; design: key: Symbols “+++” and “−” indicates the growth of yeast on selective media as shown in the FIGURE 13; Symbols “+++” and “−” indicates the growth of yeast on selective media as shown in the FIGURE 13
T5 construct: amino-acids 263 to 310 of murine JAM-C; expressed in transfected cells; host or cells: AH109 yeast strain
T5 sequence (Q9D8B7 263-310): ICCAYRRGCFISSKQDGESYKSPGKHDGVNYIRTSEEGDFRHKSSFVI
Text: as §1, §2

JAM-B = biological target: T6, JAM-B (Mus musculus, UniProt Q9JI59); test: yeast two hybrid interaction of Grasp55 constructs with JAM-B; type: binding, murine; design: key: Symbols “+++” and “−” indicates the growth of yeast on selective media as shown in the FIGURE 13; Symbols “+++” and “−” indicates the growth of yeast on selective media as shown in the FIGURE 13
T6 construct: amino-acids 258 to 298 of murine JAM-B; expressed in transfected cells; host or cells: AH109 yeast strain
T6 sequence (Q9JI59 258-298): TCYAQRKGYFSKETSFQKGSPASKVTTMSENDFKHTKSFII
Text: as §1, §2

ADAM17 = biological target: T7, ADAM17 (Mus musculus, UniProt Q9Z0F8, A775V/P752S); test: yeast two hybrid interaction of Grasp55 constructs with ADAM17 C-terminal sequence; type: binding, murine; design: key: Symbols “+++” and “−” indicates the growth of yeast on selective media as shown in the FIGURE 13; Symbols “+++” and “−” indicates the growth of yeast on selective media as shown in the FIGURE 13
T7 construct: expressed in transfected cells; host or cells: AH109 yeast strain
Text: as §1, §2

JAM-A ΔPDZbm = biological target: T8, JAM-A ΔPDZbm (Mus musculus, UniProt O88792, R268T); test: yeast two hybrid interaction of Grasp55 constructs with JAM-A ΔPDZbm; type: binding, murine; design: key: Symbols “+++” and “−” indicates the growth of yeast on selective media as shown in the FIGURE 13; Symbols “+++” and “−” indicates the growth of yeast on selective media as shown in the FIGURE 13
T8 construct: amino-acids 260 to 299 of murine JAM-A; expressed in transfected cells; host or cells: AH109 yeast strain
T8 sequence (O88792 260-297 R268T): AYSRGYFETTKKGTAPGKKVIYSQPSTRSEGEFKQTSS
Text: as §1, §2

B16F10 cells [1] = test: wound healing assay (cell migration); type: cell-based, mouse; details: B16F10 stably transfected with shRNA; shctrl 249±5; Mean+/−SEM
Description: Transient transfections were performed on a 50% confluent monolayer of B16F10 cells with either 10 nM of siRNA or 5 μg of shRNA against luciferase used as a control or shRNA against GRASP55 in Lipofectamine RNAimax (Invitrogen). Transfection efficiency was monitored at 24 h by qRT-PCR and Western blots for the expression of GRASP55 transcript or protein. For selection of stable transfectants, cells were grown in DMEM containing 10 μg/ml of puromycine (Sigma Aldrich) starting 48 h after transfection.
For in vitro wound healing assays, 80% confluent monolayers of wild-type B16F10 cells or B16F10 cells transfected with various siRNA or shRNA were grown in both chambers of Ibidi culture inserts with defined cell free gaps. Cells were subjected to serum starvation for 24 h, before wounds were created by removing Ibidi culture inserts that define cell gaps of 400 μm. The wound healing was carried out for 8 h in complete DMEM medium and was recorded at various times after wounding. Analysis of wound closure was performed using Metamorph software and is expressed as mean speed per minute.

B16F10 cells [2] = test: ELISA of soluble JAM-C in cell culture supernatant; type: cell-based, mouse; details: B16F10 control 0.27±0.02; mean±SEM
Description: An ELISA was designed to determine the concentration of soluble JAM-C in cell culture supernatants. Ninety-six-well plates (Nalge Nunc International) were coated overnight at room temperature with rat anti-mouse JAM-C antibody H36 (home-made). Plates were washed and blocked with buffer containing PBS and 2% of bovine albumin for 2 hours. Cell culture supernatants from different cell conditions were incubated during 3 hours. Plates were washed, and polyclonal rabbit anti-JAM-C (501) was added for 1 hour at room temperature. After three washes, donkey anti-rabbit HRP antibody was put on. To reveal the final read out, the substrate of HRP, tetramethylbenzidine ([…]) is adjoined. The absorbance lecture (D.O at 450 nm) is carried out on a ELISA POLARstar reader.

T7 sequence (Q9Z0F8 693-827 P752S/A775V): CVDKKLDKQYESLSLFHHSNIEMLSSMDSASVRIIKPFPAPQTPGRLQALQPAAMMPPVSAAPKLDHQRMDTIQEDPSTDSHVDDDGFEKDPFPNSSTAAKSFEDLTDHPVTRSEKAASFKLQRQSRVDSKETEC

interaction with JAM-C ΔPDZbm (yeast growth on selective media) (JAM-C ΔPDZbm)	interaction with ADAM10 (yeast growth on selective media) (ADAM10)	interaction with JAM-A (yeast growth on selective media) (JAM-A)	interaction with JAM-B ΔPDZbm (yeast growth on selective media) (JAM-B ΔPDZbm)	interaction with JAM-C (yeast growth on selective media) (JAM-C)	interaction with JAM-B (yeast growth on selective media) (JAM-B)	interaction with ADAM17 (yeast growth on selective media) (ADAM17)	interaction with JAM-A ΔPDZbm (yeast growth on selective media) (JAM-A ΔPDZbm)	Substance	mean velocity (B16F10 cells [1]) [nm/min]	quantity of soluble JAM-C in cell culture supernatant (B16F10 cells [2]) [ng/mL]
−	−	−	−	−	−	−	−	PDZI: Grasp55 construct, residues 1 to 79		
								shGRASP55: shRNA against mouse GRASP55 in pSUPER.retro, target SEQ ID NO: 11, strands SEQ ID Nos. 12 and 13 (chain 1 CGGUUCAAGAUUAAAUAAATT; chain 2 AATTTATTTAATCTTGAACCG)	184 ± 6	0.21 ± 0.01
−	+++	−	−	−	−	+++	−	PDZII: Grasp55 construct, residues 80 to 160		
−	−	+++	−	+++	+++	−	−	PDZI + II: Grasp55 construct, residues 1 to 160		

Reference: US9107936B2, “Antagonists of GRASP55 for use as a medicament” (Institut National de la Sante et de la Recherche Medicale …, priority 2012, dated 2015)
